Substitutions are numbered along the chain they refer to. In names and notes the source's numbering stands.
Columns and labels:
[1] = biological target: isophthalate dioxygenase from Comamonas testosteroni KF1 (IPDOKF1) (Comamonas testosteroni KF1); test: SEC; gel filtration on a Superdex 200 column; peaks at 62 mL (trimer, ~150 kDa) and 73 mL (monomer, ~50 kDa)
[2] = biological target: isophthalate dioxygenase from Comamonas testosteroni KF1 (IPDOKF1) (Comamonas testosteroni KF1); test: crystal structure; apo IPDOKF1 at 2.96 Å and isophthalate complex at 3.3 Å, space group P 2_(1) 3, one monomer per asymmetric unit; the trimer arises by the threefold axis
[3] = biological target: T1, IPDOKF1 (isophthalate dioxygenase, IPDO) (Comamonas testosteroni, UniProt B7WRK8); test: X-ray co-crystal structure, […] Å; format: binding; conditions: co-crystallized with 5 mM isophthalate, 0.1 M Tris-HCl pH 7.0; active site near mononuclear iron
T1 construct: gene CtesDRAFT_PD2139; 424 residues per protomer; ~50 kDa monomer, ~150 kDa trimer; primers encode N-terminus MNKEMSE and C-terminus PVFSL; Rieske [2Fe-2S]; C69/H71/C88/H91, Fe H177/H182/D337; assayed with separate reductase IPDRKF1
T1 sequence (B7WRK8 1-424): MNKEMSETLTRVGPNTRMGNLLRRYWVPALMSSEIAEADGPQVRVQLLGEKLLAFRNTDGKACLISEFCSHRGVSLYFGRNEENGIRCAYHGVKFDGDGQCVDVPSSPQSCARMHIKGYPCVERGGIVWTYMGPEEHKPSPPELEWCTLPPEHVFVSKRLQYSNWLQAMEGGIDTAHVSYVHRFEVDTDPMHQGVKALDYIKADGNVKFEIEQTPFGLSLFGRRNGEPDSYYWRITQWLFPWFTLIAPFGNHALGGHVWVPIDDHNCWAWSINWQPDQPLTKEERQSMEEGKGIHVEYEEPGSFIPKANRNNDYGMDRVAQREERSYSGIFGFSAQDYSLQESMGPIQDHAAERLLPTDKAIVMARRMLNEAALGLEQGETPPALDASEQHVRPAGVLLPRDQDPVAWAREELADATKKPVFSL

purified protein = substrate: O=C(O)c1cccc(C(=O)O)c1; test: purified protein; conditions: with reductase IPDRKF1, 1 mM NAD(P)H, 100 µM Fe(NH4)2(SO4)2, air-saturated 50 mM Tris, 25 °C, pH 7.5 in table footnote but pH 8.0 in methods
[4] = substrate: O=C(O)c1ccccc1C(=O)O; test: O2 consumption, Clark-type oxygen electrode; format: biochemical, Comamonas testosteroni; conditions: with reductase IPDRKF1, 1 mM NAD(P)H, 100 µM Fe(NH4)2(SO4)2, air-saturated 50 mM Tris, 25 °C, pH 7.5 in table footnote but pH 8.0 in methods
[5] = substrate: O=C(O)c1ccc(C(=O)O)cc1; test: O2 consumption, Clark-type oxygen electrode; format: biochemical, Comamonas testosteroni; conditions: with reductase IPDRKF1, 1 mM NAD(P)H, 100 µM Fe(NH4)2(SO4)2, air-saturated 50 mM Tris, 25 °C, pH 7.5 in table footnote but pH 8.0 in methods

## isophthalate dioxygenase from Comamonas testosteroni KF1 (IPDOKF1) (enzyme)
[1]
  stoichiometry N: 3
[2]
  stoichiometry N: 3

## O=C(O)c1cccc(C(=O)O)c1 [IPA, isophthalate]
[3]
  X-ray co-crystal structure, 3.3 Å: co-crystallized IPDOKF1 with its substrate and determined the structure of the isophthalate-bound complex

B1: IPDOKF1 (isophthalate dioxygenase, IPDO) (Comamonas testosteroni KF-1) (protein)
chain: T1 sequence (B7WRK8 1-424)
Purified protein
  Km: 31 ± 7 µM
  kcat: 4.9 s⁻¹
  kcat/Km: 160000 M⁻¹ s⁻¹

B2: IPDOKF1 (isophthalate dioxygenase, IPDO) (Comamonas testosteroni KF-1; F249H/V178A) (protein)
chain: T1 sequence (B7WRK8 1-424) with V178A, F249H
notes: 424 residues per protomer; ~50 kDa monomer, ~150 kDa trimer; primers encode N-terminus MNKEMSE and C-terminus PVFSL; Rieske [2Fe-2S]; C69/H71/C88/H91, Fe H177/H182/D337; assayed with separate reductase IPDRKF1
Purified protein
  Km: 32 ± 8 µM
  kcat: 4.8 s⁻¹
  kcat/Km: 148000 M⁻¹ s⁻¹
[4]
  Km: 91 ± 16 µM
  kcat: 4 ± 0.2 s⁻¹
  kcat/Km: 44000 ± 8000 M⁻¹ s⁻¹
[5]
  Km: 95 ± 11 µM
  kcat: 4.9 ± 0.2 s⁻¹
  kcat/Km: 51000 ± 6000 M⁻¹ s⁻¹

Reference: publication PMC12445078, “Structure-guided engineering of an aromatic ring-hydroxylating dioxygenase for broad-spectrum phthalate degradation” (Journal of Bacteriology, 2025)
